Results from patent publication US20150044250A1 (INTERVET, published 2015).

Experiments:
[1] = target: the molecule itself; experiment: SEC-UV (self-association)
[2] = target: the molecule itself; experiment: SEC-MALS (self-association)

Protein	binding result [1]	binding result [2]
3mCDTa1 (CDTa minus the signal peptide with R302A, E385A and E387D) (enzyme) MVCNTTYKAPIERPEDFLKDKEKAKEWERKEAERIEQKLERSEKEALESYKKDSVEISKYSQTRNYFYDYQIEANSREKEYKELRNAISKNKIDKPMYVYYFESPEKFAFNKVIRTENQNEISLEKFNEFKETIQNKLFKQDGFKDISLYEPGKGDEKPTPLLMHLKLPRNTGMLPYTNTNNVSTLIEQGYSIKIDKIVRIVIDGKHYIKAEASVVSSLDFKDDVSKGDSWGKANYNDWSNKLTPNELADVNDYMRGGYTAINNYLISNGPVNNPNPELDSKITNIENALKREPIPTNLTVYARSGPQEFGLTLTSPEYDFNKLENIDAFKSKWEGQALSYPNFISTSIGSVNMSAFAKRKIVLRITIPKGSPGAYLSAIPGYAGAYDVLLNHGSKFKINKIDSYKDGTITKLIVDATLIP	binds	
4mCDTa8 (CDTa minus the signal peptide with S345F, E385Q, E387Q and C2A) (enzyme) MVANTTYKAPIERPEDFLKDKEKAKEWERKEAERIEQKLERSEKEALESYKKDSVEISKYSQTRNYFYDYQIEANSREKEYKELRNAISKNKIDKPMYVYYFESPEKFAFNKVIRTENQNEISLEKFNEFKETIQNKLFKQDGFKDISLYEPGKGDEKPTPLLMHLKLPRNTGMLPYTNTNNVSTLIEQGYSIKIDKIVRIVIDGKHYIKAEASVVSSLDFKDDVSKGDSWGKANYNDWSNKLTPNELADVNDYMRGGYTAINNYLISNGPVNNPNPELDSKITNIENALKREPIPTNLTVYRRSGPQEFGLTLTSPEYDFNKLENIDAFKSKWEGQALSYPNFIFTSIGSVNMSAFAKRKIVLRITIPKGSPGAYLSAIPGYAGQYQVLLNHGSKFKINKIDSYKDGTITKLIVDATLIP		no binding
